The target of test [1] is T1, AtcC-6His (SO_1846) (Shewanella oneidensis MR-1, UniProt Q8EFW9 1-298).
T1 construct: AtcC (SO_1846) of Shewanella oneidensis MR-1, 34 kDa; pBad33-AtcC was made by moving the insert of pET-AtcC, so both give AtcC with a C-terminal 6-His tag; also called AtcC with a 6His-tag; not shown: His6, C-terminal, kept
T1 sequence (looked up): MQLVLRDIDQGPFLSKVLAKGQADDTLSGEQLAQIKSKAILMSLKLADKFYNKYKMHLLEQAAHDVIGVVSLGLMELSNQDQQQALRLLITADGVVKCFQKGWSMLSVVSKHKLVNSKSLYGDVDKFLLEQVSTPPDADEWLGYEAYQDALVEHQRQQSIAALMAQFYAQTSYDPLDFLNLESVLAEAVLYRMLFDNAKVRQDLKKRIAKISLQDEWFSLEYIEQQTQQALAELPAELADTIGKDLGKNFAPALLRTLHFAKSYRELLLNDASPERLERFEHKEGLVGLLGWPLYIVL
The test can be described thus: pull-down. As to conditions: both partners purified.

Test [2] deals with T1, AtcC-6His (SO_1846). Kind of test: ITC; 25 °C, buffer B (50 mM Tris-HCl, 100 mM KCl, 10% glycerol, 1 mM DTT); 285 µM ligand titrated into 36 µM AtcC in the cell; one set of sites model. The settings on record: both partners purified. On the technique in general: ITC needs no label: the signal is the heat of the interaction.
Test [3] deals with DnaK-6His from S. oneidensis (Shewanella oneidensis MR-1, UniProt Q8EHT7 1-639). Kind of test: cell-based or functional assay.
DnaK-6His from S. oneidensis, sequence (Q8EHT7 whole entry): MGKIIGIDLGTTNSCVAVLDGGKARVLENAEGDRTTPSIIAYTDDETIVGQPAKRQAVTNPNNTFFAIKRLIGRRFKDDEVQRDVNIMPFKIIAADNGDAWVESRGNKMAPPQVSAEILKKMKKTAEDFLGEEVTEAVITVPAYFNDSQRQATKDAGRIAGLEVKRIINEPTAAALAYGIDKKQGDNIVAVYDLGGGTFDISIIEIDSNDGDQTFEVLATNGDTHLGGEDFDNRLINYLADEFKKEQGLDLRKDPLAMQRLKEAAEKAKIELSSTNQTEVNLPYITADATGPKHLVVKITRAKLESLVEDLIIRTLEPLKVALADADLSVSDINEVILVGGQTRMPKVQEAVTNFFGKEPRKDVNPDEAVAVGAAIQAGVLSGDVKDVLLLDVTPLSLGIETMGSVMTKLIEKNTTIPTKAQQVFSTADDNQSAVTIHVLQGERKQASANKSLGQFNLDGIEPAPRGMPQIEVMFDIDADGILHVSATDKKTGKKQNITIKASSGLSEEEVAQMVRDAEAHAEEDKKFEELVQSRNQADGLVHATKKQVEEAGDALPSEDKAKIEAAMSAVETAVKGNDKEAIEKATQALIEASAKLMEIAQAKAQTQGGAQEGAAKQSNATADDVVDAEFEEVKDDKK

Consider three molecules from PMC6715715 (Communications Biology, 2019).

B1: Strep-AtcB (natural protein, Shewanella oneidensis MR-1, UniProt Q8EFW7 1-252, looked up)
chain: MNTSLIEITVAEIKELADVEPKQASKRFELIATTMNDEQLVEVIEKMDIVTLTQINSHHDISCPSIMSELMTPEQIRDIVCQQPLYWEEKIKNNAEELIQHTFDFLTYLIRIQDSEEKQTAILECIAEDPAGLFYLSIPFIEMMLGEGHDDEDHINDYYDDEEDTDTIGYDSRVASEEAHSFSLDDPRSLMALIHELAPDVEKAIKNLLRNESSGWETIINKFVNELVIQAKEKNQVTDEYAEVDDMFSFLD
notes: AtcB (SO_1848) of Shewanella oneidensis MR-1, 29 kDa; also called AtcB with a Strep-tag; purified AtcB
Take B1: the binding result with AtcC-6His (SO_1846) [1] is recorded as “binds”.

B2: pep21, synthetic peptide corresponding to the last 21 amino acids of AtcJ (peptide)
peptide: NNVIVTDPNSAMRELWDQFYP
notes: last 21 amino acids of AtcJ (SO_1850) of Shewanella oneidensis (94 amino acids; N74 is the first residue of the extension); The methods sentence says 'last 21 amino acids of AtcC'; results and legends say AtcJ; also called the peptide
Broadly, the Kd is the constant that tells how readily two partners part at equilibrium. Read a high Kd as a looser complex. B2: the Kd with AtcC-6His (SO_1846) [2] is 80 ± 12 nM.

B3: AtcJ-6His (Adaptation to cold protein J, SO_1850) (natural protein, Shewanella oneidensis MR-1, UniProt Q8EFW5 1-94, looked up)
chain: MINHFSVLGIKPSAKEDDIKKAYRRLSNKYHPDKLLGASDEEKEQASQQLERVKKAYEVLSDPKLRNAFIRDFNNVIVTDPNSAMRELWDQFYP
notes: AtcJ (SO_1850) of Shewanella oneidensis MR-1, a 94-amino acid J-domain protein (J-domain 1-73 and a C-terminal extension of 21 amino acids); also called wild-type AtcJ; AtcJ-WT
For orientation: stoichiometry N means the number of molecules, sites or subunits per partner or assembly. Consider B3, for which, in the test with AtcC-6His (SO_1846) [2], the Kd is 7 ± 2 nM and the “stoichiometry N” value was found to be 1. For the same molecule, the “stimulation of the ATPase activity of DnaK in the presence of GrpE (2 µM) from S. oneidensis” value in test [3] worked out at 2.7 fold.
